Measured values: patent publication US20160319032A1
Blank lines part the entries; values can stand above or below the substance they belong to.

Legend:
[1] = target: mouse β6 on transfected HEK-293 cells (mouse) (UniProt Q9Z0T9); experiment: FACS, transfected HEK-293 (parental: 0)
[2] = target: cynomolgus αV on transfected HEK-293 cells (cynomolgus); experiment: FACS, transfected HEK-293 (parental: 0)
[3] = target: mouse αVβ6 on cells (mouse) (UniProt P43406); experiment: FACS, transfected HEK-293 (parental: 0)
[4] = target: mouse αV on transfected HEK-293 cells (mouse) (UniProt P43406); experiment: FACS, transfected HEK-293 (parental: 0)
[5] = target: cynomolgus β6 on transfected HEK-293 cells (cynomolgus); experiment: FACS, transfected HEK-293 (parental: 0)
[6] = target: cynomolgus αVβ6 on cells (cynomolgus); experiment: FACS, transfected HEK-293 (parental: 0)
[7] = target: cynomolgus αVβ6 on cells (cynomolgus); experiment: FACS, 1 ug/ml, HEK-293 transfected with cynomolgus αV and β6, day 1
[8] = target: human αV on parental A375M cells (αVβ3 and αVβ5 integrins) (human) (UniProt P06756); experiment: FACS, 1 ug/ml, parental A375M cells, day 1
human αV on parental A375M cells (αVβ3 and αVβ5 integrins) (human), sequence (P06756 31-1048 A375M, form in doubt): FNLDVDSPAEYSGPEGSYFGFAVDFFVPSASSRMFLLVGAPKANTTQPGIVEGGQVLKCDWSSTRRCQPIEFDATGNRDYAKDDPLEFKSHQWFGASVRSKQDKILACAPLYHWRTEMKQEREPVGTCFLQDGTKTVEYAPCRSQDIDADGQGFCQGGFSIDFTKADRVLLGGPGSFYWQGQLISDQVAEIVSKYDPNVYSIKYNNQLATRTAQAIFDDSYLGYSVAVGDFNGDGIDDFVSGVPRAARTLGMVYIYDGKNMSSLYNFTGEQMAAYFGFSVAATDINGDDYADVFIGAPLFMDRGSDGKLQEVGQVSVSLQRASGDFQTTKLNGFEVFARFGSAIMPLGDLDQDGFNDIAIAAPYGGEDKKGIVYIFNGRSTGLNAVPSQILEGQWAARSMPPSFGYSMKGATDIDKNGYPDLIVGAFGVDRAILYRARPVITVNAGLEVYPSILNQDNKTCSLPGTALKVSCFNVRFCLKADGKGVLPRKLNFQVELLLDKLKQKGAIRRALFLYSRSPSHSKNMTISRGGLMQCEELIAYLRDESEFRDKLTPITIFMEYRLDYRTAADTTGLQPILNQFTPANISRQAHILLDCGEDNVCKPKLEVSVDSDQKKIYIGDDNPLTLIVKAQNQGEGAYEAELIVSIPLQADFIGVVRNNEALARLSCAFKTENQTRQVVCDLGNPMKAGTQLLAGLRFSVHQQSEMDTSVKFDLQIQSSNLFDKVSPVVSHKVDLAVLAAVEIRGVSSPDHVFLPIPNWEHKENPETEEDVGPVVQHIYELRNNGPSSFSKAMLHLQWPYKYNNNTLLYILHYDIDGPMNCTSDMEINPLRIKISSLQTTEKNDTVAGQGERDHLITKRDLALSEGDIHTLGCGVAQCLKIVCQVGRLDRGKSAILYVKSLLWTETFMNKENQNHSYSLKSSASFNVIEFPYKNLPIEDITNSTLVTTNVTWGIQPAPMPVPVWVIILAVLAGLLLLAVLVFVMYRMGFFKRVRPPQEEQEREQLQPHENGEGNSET

[9] = target: mouse αVβ6 on cells (mouse) (UniProt P43406); experiment: FACS, K562 cells expressing mouse αVβ6 (parental K562: 15)
[10] = target: cynomolgus αVβ6 on cells (cynomolgus); experiment: FACS, K562 cells expressing cynomolgus αVβ6 (parental K562: 15)
[11] = target: human αVβ6 integrin on cells (human) (UniProt P06756); experiment: cell-based or functional assay
human αVβ6 integrin on cells (human), sequence (P06756 31-1048, chain 1 of 2): as the sequence (P06756 31-1048 A375M, form in doubt) above, with M345A counted along it
human αVβ6 integrin on cells (human), sequence (P18564 22-788, chain 2 of 2, further chain): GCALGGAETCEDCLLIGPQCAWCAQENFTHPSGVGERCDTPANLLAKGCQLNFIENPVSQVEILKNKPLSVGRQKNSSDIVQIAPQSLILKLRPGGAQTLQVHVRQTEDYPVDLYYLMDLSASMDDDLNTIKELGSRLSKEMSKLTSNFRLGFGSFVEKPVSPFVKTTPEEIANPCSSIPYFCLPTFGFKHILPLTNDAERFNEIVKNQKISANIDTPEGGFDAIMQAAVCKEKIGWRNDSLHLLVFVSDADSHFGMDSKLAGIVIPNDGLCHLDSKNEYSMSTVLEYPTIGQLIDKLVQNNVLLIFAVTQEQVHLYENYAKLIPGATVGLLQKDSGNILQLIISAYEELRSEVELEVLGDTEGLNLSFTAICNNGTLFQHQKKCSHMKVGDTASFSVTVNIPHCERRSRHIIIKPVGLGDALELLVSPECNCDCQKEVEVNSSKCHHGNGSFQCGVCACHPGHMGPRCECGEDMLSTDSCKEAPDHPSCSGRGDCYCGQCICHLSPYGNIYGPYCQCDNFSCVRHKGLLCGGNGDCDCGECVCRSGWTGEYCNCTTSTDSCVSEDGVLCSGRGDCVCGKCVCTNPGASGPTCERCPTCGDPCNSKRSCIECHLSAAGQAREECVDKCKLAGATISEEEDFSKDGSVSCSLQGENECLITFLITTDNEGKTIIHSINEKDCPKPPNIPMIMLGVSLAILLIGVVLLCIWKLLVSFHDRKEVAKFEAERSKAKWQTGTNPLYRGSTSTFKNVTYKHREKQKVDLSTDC

soluble αVβ6 (human) = soluble αVβ6 (human) (UniProt P06756); experiment: ELISA, 1 ug/mL on plate-coated soluble αVβ6
[12] = target: human αV on parental A375M cells (αVβ3 and αVβ5 integrins) (human) (UniProt P06756); experiment: FACS, 1 ug/ml, parental A375M cells, day 2
[13] = target: cynomolgus αVβ6 on cells (cynomolgus); experiment: FACS, 1 ug/ml, HEK-293 transfected with cynomolgus αV and β6, day 2
[14] = target: human αVβ6 integrin on cells (human) (UniProt P06756); experiment: FMAT, 1 ug/mL, HEK 293 cells stably overexpressing αVβ6
[15] = target: α4β1 integrin on J6.77 cells (UniProt P13612); experiment: cell-based or functional assay
[16] = target: human αV on parental A375M cells (αVβ3 and αVβ5 integrins) (human) (UniProt P06756); experiment: cell-based or functional assay
[17] = target: α5β1 integrin on K562 cells (UniProt P08648); experiment: cell-based or functional assay
α5β1 integrin on K562 cells, sequence (P08648 42-1049, chain 1 of 2): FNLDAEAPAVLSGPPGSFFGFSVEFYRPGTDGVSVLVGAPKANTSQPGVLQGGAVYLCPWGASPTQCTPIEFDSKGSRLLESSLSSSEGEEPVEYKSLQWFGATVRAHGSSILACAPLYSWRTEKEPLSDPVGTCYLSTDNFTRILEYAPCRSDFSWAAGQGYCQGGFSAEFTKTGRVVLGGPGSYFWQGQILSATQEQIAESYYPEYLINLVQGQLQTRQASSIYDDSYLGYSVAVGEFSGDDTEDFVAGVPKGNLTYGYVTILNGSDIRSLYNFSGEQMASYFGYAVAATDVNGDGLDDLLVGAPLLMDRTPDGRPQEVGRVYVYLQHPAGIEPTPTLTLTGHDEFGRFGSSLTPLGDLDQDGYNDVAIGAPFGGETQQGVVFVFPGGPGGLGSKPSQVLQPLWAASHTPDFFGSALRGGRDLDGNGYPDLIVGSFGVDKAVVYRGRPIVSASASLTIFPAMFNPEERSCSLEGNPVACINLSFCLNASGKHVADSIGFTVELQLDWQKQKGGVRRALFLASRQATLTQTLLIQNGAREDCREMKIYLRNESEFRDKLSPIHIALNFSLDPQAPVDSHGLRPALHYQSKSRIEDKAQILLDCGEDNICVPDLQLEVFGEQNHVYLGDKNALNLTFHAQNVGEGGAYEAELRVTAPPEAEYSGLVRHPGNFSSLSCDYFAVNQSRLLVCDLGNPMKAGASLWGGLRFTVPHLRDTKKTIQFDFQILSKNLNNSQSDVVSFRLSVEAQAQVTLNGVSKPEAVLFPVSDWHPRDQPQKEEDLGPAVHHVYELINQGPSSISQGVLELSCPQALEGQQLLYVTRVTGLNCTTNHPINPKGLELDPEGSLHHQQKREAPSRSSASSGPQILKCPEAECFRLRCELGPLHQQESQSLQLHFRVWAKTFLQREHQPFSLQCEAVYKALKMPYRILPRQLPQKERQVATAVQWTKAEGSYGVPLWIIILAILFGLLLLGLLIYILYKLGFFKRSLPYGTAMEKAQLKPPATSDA
α5β1 integrin on K562 cells, sequence (P05556 21-798, chain 2 of 2, further chain): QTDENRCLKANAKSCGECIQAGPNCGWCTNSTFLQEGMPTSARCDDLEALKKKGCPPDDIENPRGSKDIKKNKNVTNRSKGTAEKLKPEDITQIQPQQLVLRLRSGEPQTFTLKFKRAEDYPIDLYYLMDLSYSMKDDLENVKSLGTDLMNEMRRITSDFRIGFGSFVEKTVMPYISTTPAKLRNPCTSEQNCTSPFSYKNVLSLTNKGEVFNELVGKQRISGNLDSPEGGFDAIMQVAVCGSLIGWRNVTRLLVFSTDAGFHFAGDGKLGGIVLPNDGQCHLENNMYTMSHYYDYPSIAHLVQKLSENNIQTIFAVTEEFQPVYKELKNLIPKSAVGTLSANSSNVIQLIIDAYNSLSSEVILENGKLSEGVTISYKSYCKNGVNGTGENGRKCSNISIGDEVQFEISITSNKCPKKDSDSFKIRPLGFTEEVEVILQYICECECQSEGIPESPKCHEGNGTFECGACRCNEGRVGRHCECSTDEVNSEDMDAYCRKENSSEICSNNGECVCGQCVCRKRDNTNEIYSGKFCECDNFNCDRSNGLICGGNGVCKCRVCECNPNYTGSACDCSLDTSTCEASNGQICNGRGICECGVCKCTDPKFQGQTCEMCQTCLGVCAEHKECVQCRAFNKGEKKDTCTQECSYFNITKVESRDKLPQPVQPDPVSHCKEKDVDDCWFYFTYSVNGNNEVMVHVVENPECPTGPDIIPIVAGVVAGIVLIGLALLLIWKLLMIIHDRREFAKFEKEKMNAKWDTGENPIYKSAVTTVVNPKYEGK

mouse β6 on transfected HEK-293 cells (mouse), sequence (Q9Z0T9 22-787): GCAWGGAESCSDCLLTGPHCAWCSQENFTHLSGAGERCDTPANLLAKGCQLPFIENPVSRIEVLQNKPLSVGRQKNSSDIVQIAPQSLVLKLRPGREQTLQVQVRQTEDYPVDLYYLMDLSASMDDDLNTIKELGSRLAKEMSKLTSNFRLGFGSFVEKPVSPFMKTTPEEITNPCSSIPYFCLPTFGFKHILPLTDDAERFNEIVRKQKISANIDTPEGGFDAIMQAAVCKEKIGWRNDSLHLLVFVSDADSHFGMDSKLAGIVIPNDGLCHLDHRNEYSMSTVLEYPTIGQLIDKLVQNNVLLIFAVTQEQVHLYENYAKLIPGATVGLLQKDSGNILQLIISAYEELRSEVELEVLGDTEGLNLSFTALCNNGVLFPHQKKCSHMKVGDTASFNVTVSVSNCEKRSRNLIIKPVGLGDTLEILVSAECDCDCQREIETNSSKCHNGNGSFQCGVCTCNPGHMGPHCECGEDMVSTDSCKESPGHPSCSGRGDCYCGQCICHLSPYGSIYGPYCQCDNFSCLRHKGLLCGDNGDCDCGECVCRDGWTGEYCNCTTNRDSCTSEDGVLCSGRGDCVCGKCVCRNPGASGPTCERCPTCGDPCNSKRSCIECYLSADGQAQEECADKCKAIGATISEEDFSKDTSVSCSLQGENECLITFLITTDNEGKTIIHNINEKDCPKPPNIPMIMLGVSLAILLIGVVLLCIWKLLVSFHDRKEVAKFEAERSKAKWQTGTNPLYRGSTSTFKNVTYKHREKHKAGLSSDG

Substance: Human IgG Isotype Control (antibody)
Percent Inhibition of A375M adhesion to osteopontin peptide, 5 ug/ml [16]: 3% | % Inhibition of K562 adhesion to fibronectin [17]: -12% | Percent Inhibition of K562 adhesion to FN9-10, 5 ug/ml [17]: 11%

Substance: Human IgG1 (antibody)
Percent Inhibition of J6.77 adhesion to CS-1 peptide, 5 ug/ml [15]: -6%

Other lines, results leading:

percent of cells shifted [1]: 11% | percent of cells shifted [2]: 0% | percent of cells shifted [3]: 45% | percent of cells shifted [4]: 1% | percent of cells shifted [5]: 5% | percent of cells shifted [6]: 20% | % Cells Shifted [7]: 42% | GeoMean [7]: 55.5 | % Cells Shifted [8]: 30% | GeoMean [8]: 2.03 | Geometric Mean Shift (arbitrary units) [9]: 122 | Geometric Mean Shift (arbitrary units) [10]: 84 | Estimated IC50, adhesion assay, n = 1 [11]: 0.226 µg/mL | Estimated IC50, adhesion assay, n = 2 [11]: 0.185 µg/mL | Estimated IC50, adhesion assay, n = 3 [11]: 0.286 µg/mL | ELISA OD (soluble αVβ6 (human)): 6 OD | % Cells Shifted [12]: 5% | GeoMean [12]: 15.4 | % Cells Shifted [13]: 11% | GeoMean [13]: 28.1 | FMAT Count [14]: 67 | FMAT FL1 [14]: 659 | FMAT FL1XCount [14]: 44200
Substance: murine anti-αVβ6 antibody 2077z (Cat#MAB2077z, Chemicon)

Percent Inhibition of J6.77 adhesion to CS-1 peptide, 5 ug/ml [15]: -9%
Substance: Human IgG2 (antibody)

Percent Inhibition of A375M adhesion to osteopontin peptide, 5 ug/ml [16]: 5%
Substance: Mouse IgG Control (antibody)
